Experimental data taken from the RNAGym collection of RNA variant scans (doi:10.1073/pnas.2313332121).
Fewer inactive variants are shown than the library holds.

B1: TPR 5TU (parent)
chain: GGAUCUUCUCGAUCUAACAAAAAAGACAAAUCUGCCACAAAGCUUGAGAGCAUCUUCGGAUGCAGAGGCGGCAGCCUUCGGUGGCGCGAUAGCGCCAACGUUCUCAACUAUGACACGCAAAACGCGUGCUCCGUUGAAUGGAGUUUAUCAUG

Variants of: B1
Test: polymerase ribozyme fitness, log enrichment relative to wild type (log ratio); higher = more active; in vitro selection for triplet polymerase activity
Outline: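 After PCR construction and transcription, each subunit's mutant library from a heterodimeric triplet polymerase ribozyme was annealed with a biotinylated primer, the partner subunit and triplets. Incubation was frozen, at −7 °C, and extended constructs were gel-excised, bound to streptavidin beads and amplified by RT-PCR, in one selection round done in triplicate. Fitness is the logarithm of a genotype's enrichment divided by that of the wild type, from inverse-variance-weighted replicate averages of Illumina-sequenced inputs and outputs. The base of the logarithm is 2, and genotypes needed ≥10 input reads and ≥1 read per output.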

GGAUCUUCUCGAUCUAACAAAAAAGACAUAUCUGCCACAAAGCUUGAGAGCAUCUUCGGAUGCAGAGGCGGCAGCCAUCGGUGGCGCGAUAGCGGCAACGUUCUCAACUAUGACACGCAAAACGCGUGCUCCGUUGAAUGGAGUUUAUCAUG and GGAUCUUCUCGAUCUAACAAAAAAGACAACUCUGCCACAAAGCUUGAGAGCAUCUUCGGAUGCAGAGGCGGCAGCCUUCGGUGGCGCGAUAGUGCCAACGUUCUCAACUAUGACACGCAAAACGCGUGCUCCGUUGAAUGGAGUUUAUCAUG cannot be ordered by “polymerase ribozyme fitness (log ratio)” value: ≤ -4.2 for the first, ≤ -4.2 for the second.

GGAUCUUCUCGAUCUAACAAAAAAGACAACUCUGCCACAAAGCUUGAGAGCAUCUUCGGAUGCAGAGGCGGCACAUUUCGGUGUCGAGAUAGCGCCAACGUUCUCAACUAUGACAGGCAAAACGCGUGCUCCGUUGAAUGGAGUUUAUCAUG and GGAUCUUCUCGAUCUAACAAAAAAGACAACUCUGCCACAAAUCUUGAGAGCAUUUUCGGAUGGAGAGACGGCAGCCUUCGGUGGCGCGAUAGUGCCAACGUUCUCAACUAUGACACGCAAGACGCGUGCUCCGUUGAAUAGAGUUUAUCAUG cannot be ordered by “polymerase ribozyme fitness (log ratio)” value: ≤ -4.2 for the first, ≤ -4.2 for the second.

Compared with GGAUCUUCUCGAUCUAACAAAAAAGACAAGUCUGCCACAAAGCUUGAGAGCAUCUUCGGAUGCAGAGGCGGCAGCCUUCGGUGGCGCGAUAGCGCCAACGUUCUCAACUAUGACACGCAAAACGCGUGCUCCGUUGAAUGGAGUUUAUCAUG, GGAUCUUCUCGAUCUAACAAAAAAGACAACUCUGCCACAAAGCUUGAGAGCAUCUUCGGAUGCAGAGGCGGCAGCCUUCGGUGGCGCGAUAGCGCCAACGUUCUCAACUAUGACACGCAAAACGCGUGCUCCGUUGAAUGGAGUUUAUCAUG is lower in “polymerase ribozyme fitness (log ratio)” value: -2.24 for the first, -3.12 for the second.

GGAUCUUCUCGAUCUAACAAAAAAGACAACUCUGCCACAAAGCUUGAGAGCAUCUUCGGCUGCAGAGGCGGCAGCCUUCGGUGGCGCGAUAGCGCCAACGUUCUCAACUAUGACACGCAAAACGCGUGCUCCGUUGAAUGGAGUUUAUCAUG and GGAUCUUCUCGAUCUAACAAAAAAGACAACACUGCCACAAAGCAUGAGAGCAUCAUGGGAUGCAGAGGCGGCAGCGUUCGGUGGCGCGAUAGCGCCAACGUUCUCAACUAUGACACGCAAAACGCGUGCUCCGUUGAAUGGAGUUUAUCAUG cannot be ordered by “polymerase ribozyme fitness (log ratio)” value: ≤ -4.2 for the first, ≤ -4.2 for the second.

GGAUCUUCUCGAUCUAACAAAAAAGACAACUCUGCCACAAAGCUUGAGAGUAUCUUCUGAUGCAGAGGCGGCAGCCUUCAGUGGCGCGAUAGCGCCAACGUUCUCAACUAUGACACGCAAAACGCGUGCUCCGUUGAAUGGAGUUUAUCAUG and GGAUCUUCUCGAUCUAACAAAAAAGACAACUCUGCAACAAAGCUUGAGAGCGUCUUCGGAUGCAGAGGCGGCAGCCUUCGGUGGCGCGAUAGCGCCAACGUUCUCAAAUAUGACACGCAAAACGCGUGCUCCGUUGAAUGGAGUUUAUCAUA cannot be ordered by “polymerase ribozyme fitness (log ratio)” value: ≤ -4.2 for the first, ≤ -4.2 for the second.

GGAUCUUCUCGAUCUAACAAAAAAGACAUAUCUGCCACAAAGCUUGAGAGCAUCUUCGGAAGCAGAGGCGGCAUCCUUCGGUGGCGCGAUAGCGCCAACGUUCUCAACUAUGACACGAAAAACGCGUGCACCGUUGAAUGGAGUUUAUCAUG and GGAUCUUCUCGAUCUAACAAAAAAGACAACUCUGCCACAAAGCUUGAGAGCAUCUUCGGAUGCAGAGGCGGCAGCCUUCGGUCGCGCGAUAGCGCCAACGGUCUCAACUAUGACACGCAAUACGCGUGCUCCGUUGAAUGGAGUUUAUCAUG cannot be ordered by “polymerase ribozyme fitness (log ratio)” value: ≤ -4.2 for the first, ≤ -4.2 for the second.

GGAUCUUCUCGAUCUAACAAAAAAGACAACUCUGCCACAAAGCUUCAGAGCAUCUUCGGAUGCAGAGGCGGCGGCCUUCCGUGACGCGAUGGCGCCAACGUUCUCAACUAUGACACGCAAAACGCGUGCUCCGUUGAAUGGAGUUUAUCAUG and GGAUCUUCUCGAUCUAACAAAAAAGACAACUCUGCCACAAAGCUUGAGAGCAUCUUCGGAUGCAGAGGCGGCUGCCUUCGGUGGGGCGAUAGGGCGAACGUUCUCAACUAUGACACGCAAAACGCGUGCUCCGUUGAAUGGAGUUUAUUAUG cannot be ordered by “polymerase ribozyme fitness (log ratio)” value: ≤ -4.2 for the first, ≤ -4.2 for the second.

GGAUCUUCUCGAUCUAACAAAAAAGACAACUCUGCCAUAAAGCUUGAGAGCAUCUUCGGAUGCAGAGGCGGCAACCUUCGGUGGCGCGAUAGCGCCAACGUUCUCAACUAUGACACGCAAAACGCGUGCUCCGUUGAAUGGAGUUUAUCAUG and GGAUCUUCUCGAUCUAACAAAAAAGACAUAUCUGCCACAAAGCUUGAGAGCAUCUUCGGAUGCAGAGGCGGCAGCCUUCGGUGGCGCGAUAGCGCCAACGUUCUCAACUAUCACACGCAAGACGCGUGCUCCGUUUGAUGGAGUAUAUCAUG cannot be ordered by “polymerase ribozyme fitness (log ratio)” value: ≤ -4.2 for the first, ≤ -4.2 for the second.

GGAUCUUCUCGAUCUAACAAAAAAGACAACUCUGCCACAAAGCUUGAGAGCAUCAUGGGAUGCAGAGGCGGCAGCCUUCGGUGGCGCGAUAGUGCCAACGUUCUGAACUAUGACACGCAAAACUCGUGCUCCGUUGAAUGGAGUUUAUCAUG and GGAUCUUCUCGAUCUAACAAAAAAGACAACUCUGCCACAAAGCUUGAGAGCAUCUUCGGAUGCAGAGGGGGCAGCAUUCGGUGGCGCGAUAGCACCAACGUUCUCAACUAUGACACGCAAAACGCGUGCUCCGUUGAAUAGAGUUUAUCAUG cannot be ordered by “polymerase ribozyme fitness (log ratio)” value: ≤ -4.2 for the first, ≤ -4.2 for the second.

GGAUCUUCUCGAUCUAACAAAAAAGACAUAUCUGCCACAAAGCUUGAGAGCAUCUUCGGAUGCAGAGGCGGCAGCCUUCGGUGGCGCGAUACCGUCAACGUUCUCCACUAUGAUACGCAAAACGCGUUCUCCGUUGAGUGGAGUUUAUCAUG and GGAUCUUCUCGAUCUAACAAAAAAGACAACUCUGCCACAAAGCUUGAGAGCAUCUAGGGAUGCAGAGGCGGCAGCCUUCGGUGGCGUGAUAGCGCCAACGUGCUCAACUAUGACACGCAAAACGCGUGCUCCGUUGAAUGGACUUUAUCAUG cannot be ordered by “polymerase ribozyme fitness (log ratio)” value: ≤ -4.2 for the first, ≤ -4.2 for the second.

GGAUCUUCUCGAUCUAACAAAAAAGACAACUCUGCCACAAAGCUUGAGAGCAUCUUCGGAUGCAGAGGCGUCAGCCUUCGGUGGCGCGAUAGCGCCAGCGUUGUCAACUAUGACACGCAAAACGCGUGCUCCGUUGAAUGGAGUUUAUCAUG and GGAUCUUCUCGAUCUAACAAAAAAGACAACUCUGCCACAAAGCAUGAGAGUAUCUUCGGAUGCAGAGGCGGCAGCCCUCGGUGGCGCGAUAGCGCCAACGUUCUCAACUAUGACACGCAAAACGCGUGCUGCGUUGAAUGGAGUUUAUCAUG cannot be ordered by “polymerase ribozyme fitness (log ratio)” value: ≤ -4.2 for the first, ≤ -4.2 for the second.

GGAUCUUCUCGAUCUAACAAAAAAGACAUAUCUGCCACAAAGCUUGAGAGCAUCUUCGGAAGCAGAAGCGGCAGCCUUCGGUGGCGCGAUAGCGCUAACGUUCUCAACUAUGACACGCAAAACGCGUGCUCCGUUGAAUGGAGUUUAUCAUG and GGAUCUUCUCGAUCUAACAAAAAAGACAACUCUGCCACAAAGCUUGAGAGCAUUUUCGGAUGCAGAGGCUGCAGCCUUCGGUGGCGCGAUAGAGCCAACGUUCUCAACUAUGACACGCAUAACGCGUGCACCGUUGAGUGGAGUUUAUCAUG cannot be ordered by “polymerase ribozyme fitness (log ratio)” value: ≤ -4.2 for the first, ≤ -4.2 for the second.

First: GGAUCUUCUCGAUCUAACAAAAAAGACAACUCUGCCACAAAGCUUGAGAGCAUCUUCGGAUGCAGAGGCGGCAGGCUUCGUUGGCGUGAUAGCGCCAACGUUCUCAACUAUGACACGCAUAACGCGUGCUCCGUUGAAUGGAGUUUAUCAUG
Second: GGAUCUUCUCGAUCUAACAAAAAAGACAACUUUGCUACAAAGCUUGAGAGCAUCUUCGGAUGCAGAGGCUGCAGCCUUCGGUGGCGCGAUAGCGCCAACGUUCUCAACUAUGACACGCAAAACGCGUGCUCCGUUGAAAGGCGUUUAUCAUG
The “polymerase ribozyme fitness (log ratio)” value of the first is higher: -4.16 for the first, ≤ -4.2 for the second.

GGAUCUUCUCGAUCUAACAAAAAAGACAACUCUGCCACAAAGCUUGAGUGCAUCUUGGGAUGCAGAGGCGGCAGCCUUAGGUGGCGCGAUAGCGCUAACGUUCUCAUCUAUGACACGCAAAACGCGUGCUCCGUUGAAUGGAGUUUAUCAUG and GGAUCUUCUCGAUCUAACAAAAAAGACAUAUCUGCCACAAAGCUUGAGAGCAUCUUCGGAUCCAGAGGCAGCAGCCUUCGGUGGCGCGAUAGCGCCAACGUUCUCAACUAUGACACGCAAAACGCGUGCUCCGUUGUCUGGAGUUUAUCAUG cannot be ordered by “polymerase ribozyme fitness (log ratio)” value: ≤ -4.2 for the first, ≤ -4.2 for the second.

GGAUCUUCUCGAUCUAACAAAAAAGACAACUCUGCCACAAAGCUUGAGAGCAUCUUCGGAUGCAGAGGCGGCAGCCUUCGGUGGCGCGAUAGCGCCAACGUUCUUAACUAUGACACGCAAAACGCGUGCUCCGUUGAAUGGAGUUUAUCAUG and GGAUCUUCUCGAUCUAACAAAAAAGACAUAUCUGCCACAAAGCUUGAGAGCAUCUUCGGAUGCAGAGACGGCAGCCUUCGAUGGCGCGAUAGCGCCAACGUUCUCAACUAUGACACGCAAAACGCGUGCUCCGUUGAAUGGAGUUUAUCAUG cannot be ordered by “polymerase ribozyme fitness (log ratio)” value: ≤ -4.2 for the first, ≤ -4.2 for the second.

Compared with GGAUCUUCUCGAUCUAACAAAAAAGACAACUCUGCCACAAAGCUUGAGAGCAUCUUCGGAUGCAGAGGCGGCAGCCUUUGGUGGCGCGAUAGCGCCAACGUUCUCAACUAUGACACGCUAAACGCGUGGUCCGGUGAAUGGAGUUUAUCGUG, GGAUCUUCUCGAUCUAACAAAAAAGACAAGUCUGCCCCAAAGCUUGAGAGCAUCUUCGGAUGCAGAGGCGGCAGCCUUCGGUGGCGCGAUAGCCCCAACGUUCUCAACUAUGACACGCAAAACGCGUGCUCCGUUGAAUGGAGUUUAUCAUG is lower in “polymerase ribozyme fitness (log ratio)” value: -4.04 for the first, ≤ -4.2 for the second.

GGAUCUUCUCGAUCUAACAAAAAAGACAACUCUGCCACAAAGCUUGAGACCAUCUUCGGAUGCAAAGGCGGCAGCCUUCGGUGACGCGAUAGCGCCAACGUUCUCAACGAUGACACGCAAAACGCGUGCUCCGUUGAAUGGUGUUUAUCAUG and GGAUCUUCUCGAUCUAACAAAAAAGACAACACUGCCACAAAGCUUGAGAGCAUCUUCGGAUGCAGAGGCGGCAGACUUAGGUGGCGCGAUAGCGCCAACGUUCUCAACUAUGACACGCAAAACGCGUGCUCCGUUGAAUGGAGAUUAUCAUG cannot be ordered by “polymerase ribozyme fitness (log ratio)” value: ≤ -4.2 for the first, ≤ -4.2 for the second.

GGAUCUUCUCGAUCUAACAAAAAAGACAUAUCUGCCACAAAGCUUGAGAGCAUCUUCGGAUGCAGAGGCGGCAGCCUUCGGUGGCGCGAGAGCGUCAACGUUCUCAACUAUGACGCUCAUAACGCGUGCUCCGUUGAAUGGAGUUUAUCAUG and GGAUCUUCUCGAUCUAACAAAAAAGACAACUCUGCCAGAAAGCUUGAGCGCAUCUUCGGAAGCAGCCGCGGCAGCCUUCGGUGGCGCGAUAGGGCCAACGUUCUCAACUUUGACACGCAAAACCCGUGCUCCGUUGAAUGGAAUUUAUCAUG cannot be ordered by “polymerase ribozyme fitness (log ratio)” value: ≤ -4.2 for the first, ≤ -4.2 for the second.

GGAUCUUCUCGAUCUAACAAAAAAGACAACUCUGCCACACAGCUUGAGAGCAUCUACGGGUGCAGGGGCGGCAGCCUUCGGUGGCGCGUUAGAGCCAAUGUUCUCCACUAUGACACGCAAAACGCUUGCUUCGAUGAAUGGAGUUUAUCAUG and GGAUCUUCUCGAUCUAACAAAAAAGACAUAUCUGCCACAAAGCUUGAGAGCAUCUUCGGAUGCAGAGGCGGCAGCCUUCGGUGGCGCGAUAGCGCCAACGUUCUCAACUAUGACACGCAAAACUCGUGCUCCGUUGAAUGGAGUUUAUCAUG cannot be ordered by “polymerase ribozyme fitness (log ratio)” value: ≤ -4.2 for the first, ≤ -4.2 for the second.
